Laboratory results reported in publication doi:10.1101/2022.03.30.486445 (bioRxiv, 2022).
Each block holds one binder with its values, some of them ahead of it.

Columns and labels:
His6-EB1-CyPet = target: T1, His6-EB1-CyPet (human, UniProt Q15691 1-268); experiment: FRET or BRET
T1 sequence: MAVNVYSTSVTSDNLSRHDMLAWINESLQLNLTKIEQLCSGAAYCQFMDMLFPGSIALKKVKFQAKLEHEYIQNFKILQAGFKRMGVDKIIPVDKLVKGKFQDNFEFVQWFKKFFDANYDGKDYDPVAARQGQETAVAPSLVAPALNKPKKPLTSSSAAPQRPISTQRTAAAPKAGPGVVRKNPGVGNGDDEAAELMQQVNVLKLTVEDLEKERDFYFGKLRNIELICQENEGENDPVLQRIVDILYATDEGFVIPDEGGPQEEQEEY

[1] = target: doubly stabilized microtubules (GMPCPP and paclitaxel) (UniProt Q6B856 1-445); experiment: co-sedimentation
[2] = target: GMPCPP-stabilized HyLite 647/biotin-labeled microtubules (bovine) (UniProt Q6B856); experiment: single-molecule TIRF microscopy

binding result (His6-EB1-CyPet): binds
fold increase in the Kd for MTs with importin α/β against without [1]: 9 fold
B1: YPet-Kif18B(605-828)-His6 (domain or fragment)
chain: TRTMARRLSGPLHTLGIPPGPNCTPAQGSRWPMEKKRRRPSALEADSPMAPKRGTKRQRQSFLPCLRRGSLPDTQPSQGPSTPKGERASSPCHSPRVCPATVIKSRVPLGPSAMQNCSTPLALPTRDLNATFDLSEEPPSKPSFHECIGWDKIPQELSRLDQPFIPRAPVPLFTMKGPKPTSSLPGTSACKKKRVASSSVSHGRSRIARLPSSTLKRPAGPLVL

binding result (His6-EB1-CyPet): binds
fold increase in the Kd for MT binding relative to YPet-Kif18B(605-828) [1]: ~2 fold
B2: YPet-Kif18B(605-828)-NLS1/2 (domain or fragment)
chain: TRTMARRLSGPLHTLGIPPGPNCTPAQGSRWPMEAAARRPSALEADSPMAPAAGTKRQRQSFLPCLRRGSLPDTQPSQGPSTPKGERASSPCHSPRVCPATVIKSRVPLGPSAMQNCSTPLALPTRDLNATFDLSEEPPSKPSFHECIGWDKIPQELSRLDQPFIPRAPVPLFTMKGPKPTSSLPGTSACAAAAVASSSVSHGRSRIARLPSSTLKRPAGPLVL

binding result (His6-EB1-CyPet): binds
B3: YPet-Kif18B(605-707)-His6 (domain or fragment)
chain: TRTMARRLSGPLHTLGIPPGPNCTPAQGSRWPMEKKRRRPSALEADSPMAPKRGTKRQRQSFLPCLRRGSLPDTQPSQGPSTPKGERASSPCHSPRVCPATVI

dwell time at MT plus ends [2]: 5.56 s
dwell time at MT plus ends, with importin α/β [2]: 5.39 s
dwell time on the MT lattice [2]: 1.77 s
dwell time on the MT lattice, with importin α/β [2]: 2.3 s
on-rate on MTs (landing events per MT length and time) [2]: 0.26 µm·s^-1
on-rate on MTs (landing events per MT length and time), with importin α/β [2]: 0.35 µm·s^-1
B4: GFP-Kif18B (full-length human Kif18B N-terminally tagged with EGFP) (natural protein)
chain: MAVEDSTLQVVVRVRPPTPRELDSQRRPVVQVVDERVLVFNPEEPDGGFPGLKWGGTHDGPKKKGKDLTFVFDRVFGEAATQQDVFQHTTHSVLDSFLQGYNCSVFAYGATGAGKTHTMLGREGDPGIMYLTTVELYRRLEARQQEKHFEVLISYQEVYNEQIHDLLEPKGPLAIREDPDKGVVVQGLSFHQPASAEQLLEILTRGNRNRTQHPTDANATSSRSHAIFQIFVKQQDRVPGLTQAVQVAKMSLIDLAGSERASSTHAKGERLREGANINRSLLALINVLNALADAKGRKTHVPYRDSKLTRLLKDSLGGNCRTVMIAAISPSSLTYEDTYNTLKYADRAKEIRLSLKSNVTSLDCHISQYATICQQLQAEVAALRKKLQVYEGGGQPPPQDLPGSPKSGPPPEHLPSSPLPPHPPSQPCTPELPAGPRALQEESLGMEAQVERAMEGNSSDQEQSPEDEDEGPAEEVPTQMPEQNPTHALPESPRLTLQPKPVVGHFSARELDGDRSKQLALKVLCVAQRQYSLLQAANLLTPDMITEFETLQQLVQEEKIEPGAEALRTSGLARGAPLAQELCSESIPVPSPLCPEPPGYTGPVTRTMARRLSGPLHTLGIPPGPNCTPAQGSRWPMEKKRRRPSALEADSPMAPKRGTKRQRQSFLPCLRRGSLPDTQPSQGPSTPKGERASSPCHSPRVCPATVIKSRVPLGPSAMQNCSTPLALPTRDLNATFDLSEEPPSKPSFHECIGWDKIPQELSRLDQPFIPRAPVPLFTMKGPKPTSSLPGTSACKKKRVASSSVSHGRSRIARLPSSTLKRPAGPLVLPGDWH

binding result (His6-EB1-CyPet): binds
B5: YPet-Kif18B(708-828)-His6 (domain or fragment)
chain: KSRVPLGPSAMQNCSTPLALPTRDLNATFDLSEEPPSKPSFHECIGWDKIPQELSRLDQPFIPRAPVPLFTMKGPKPTSSLPGTSACKKKRVASSSVSHGRSRIARLPSSTLKRPAGPLVL

binding result (His6-EB1-CyPet): binds
B6: YPet-Kif18B(708-828) E2 (domain or fragment)
chain: KSRVPLGPSAMQNCSTPLALPTRDLNATFDLSEEPPSKPSFHECIGWDKIPQELSRLDQPFIPRAPVPLFTMKGPKPTSSNNGTSACKKKRVASSSVSHGRSRIARLPSSTLKRPAGPLVL
